How the values of the data set were obtained: Molar masses of the samples were determined with universal calibration with the refractive index detector and the viscosity detector. The universal calibration curve was based on polystyrene standards [Polymer Laboratories (Amherst, Mass.) and Aldrich (Oakville, ON)] using the molar masses determined by the manufacturer and the intrinsic viscosities measured by the apparatus. The software OmniSEC™ software from Viscotek was used for data collection and calibration. Separation in THF was performed by injecting 100 μL of 1.5-2 mg/mL solutions of standards or samples into thermostatically controlled SuperRes™ columns [35° C.; PAS-102, PAS102.5, PAS-103L, each 300 mm×8 mm; PolyAnalytik (London, ON)]. The flow rate was 1 mL/min.
Alternatively, a thin film was prepared from 1 g of commercial available PCL pellets and used for degradation. The polymer was dissolved in dichloromethane in a 1 L beaker. The solvent was allowed to evaporate overnight and the resulting film dried to constant weight under reduced pressure. Prior to enzymatic treatment the film was cut into pieces (20 mg) of approximately 1.5 cm×1.5 cm and thickness of approximately 0.1 mm. The reaction mixture was monitored by HPLC and SEC as described above.
To quantify this further, pellets of polycaprolactone (PCL) as well as films of PCL were incubated with KrCUT at various enzyme concentrations (1.25 μM, 2.5 μM, and 5 μM representing 4.7, 9.5 and 19 enzyme Units) at 37° C. The degradation of the polymer was followed over time by analyzing aliquots of the reaction mixture by HPLC for the detection of the released monomer (6-hydroxyhexanoic acid) and characterization of the remaining polymer by SEC after lypholization of the sample.

The text below walks through data of US10227575B2, “Multi-domain enzymes having cutinase activity, compositions comprising same and uses thereof” (OZYMES, priority 2015, dated 2019).

Like-named read-outs stand apart in the source and are kept apart here.

B1: KrCUT: mature Kineococcus radiotolerans cutinase, amino acids 34-294 of SEQ ID NO: 1; SEQ ID NO: 6 (protein)
chain: ATCSDVDVVFARGTGETPGLGVVGGPFVRSLTGELSDRTVTSHAVDYAASSSQASAGPGATAMSAHVREVAAACPSTRFVLGGYSQGATVTDIALGIRTGTTTGTPVPAELAGRVAAVVVFGNPLGLSGRTIATASSTYGPKSKDYCNSSDSVCGSAPKTGTGGHLSYASNGSTTDGARFAAGLVRAAGTPTTPTPTPTPTPVPTTCVRDSTRDHVAADRAVSLYGRAYARGSRDSLGATSSYNVVSLQQVEGGWRLVTAC
modifications: Kineococcus radiotolerans; (1)..(261) KrCUT (lacking residues 1-33 of ssKrCUT)
As to B1, where the note is “2.5-5 μM, 24 hours”, the “polymer peak in SEC” value is reported as “complete disappearance of the polymer”. In addition, the “6-hydroxy hexanoic acid from PCL pellets, % of the maximum yield” value (PCL pellets, 2.5 μM protein, 24 hours) came to 18%. Further, the “degradation of thin films of PCL” value (enzyme 1.25 μM, 24 hours) is on record as “nearly completely degraded”. For the same molecule, the “acidic monomers released from PCL” value (enzyme 2.5 or 5 μM, 6 hours, 37° C.) was ~90%. For the same molecule, the “Mn of remaining PCL” value reads like this: (time 0 h) 44000 Daltons; (time 1 h) 53800 Daltons; (time 3 h) 55000 Daltons; (time 6 h) 58200 Daltons; (time 24 h) 69500 Daltons. The “Mw of remaining PCL” value (time 0 h) came to 63300 Daltons; the “Mw of remaining PCL” value (time 1 h) came out at 64400 Daltons; the “Mw of remaining PCL” value (time 3 h) was 66600 Daltons; the “Mw of remaining PCL” value (time 6 h) worked out at 68100 Daltons; the “Mw of remaining PCL” value (time 24 h) came out at 74000 Daltons. In addition, the “PCL (SEC)” value turned out to be 100% (time 0 h); 61% (time 1 h); 27% (time 3 h); 12% (time 6 h); 0.3% (time 24 h). Besides, the “acid (HPLC)” value (time 0 h) is 0%; the “acid (HPLC)” value (time 1 h) worked out at 28%; the “acid (HPLC)” value (time 3 h) is 60%; the “acid (HPLC)” value (time 6 h) is listed as 85%; the “acid (HPLC)” value (time 24 h) is listed as 100%.
